Measured values from paper PMC5098445 (mAbs, 2016).
Where a chain is given by its changes, count along the chain named.

Target: human insulin-like growth factor 1 receptor (Homo sapiens, UniProt P08069)
Assay: SPR

Sequence of human insulin-like growth factor 1 receptor (P08069 31-1367): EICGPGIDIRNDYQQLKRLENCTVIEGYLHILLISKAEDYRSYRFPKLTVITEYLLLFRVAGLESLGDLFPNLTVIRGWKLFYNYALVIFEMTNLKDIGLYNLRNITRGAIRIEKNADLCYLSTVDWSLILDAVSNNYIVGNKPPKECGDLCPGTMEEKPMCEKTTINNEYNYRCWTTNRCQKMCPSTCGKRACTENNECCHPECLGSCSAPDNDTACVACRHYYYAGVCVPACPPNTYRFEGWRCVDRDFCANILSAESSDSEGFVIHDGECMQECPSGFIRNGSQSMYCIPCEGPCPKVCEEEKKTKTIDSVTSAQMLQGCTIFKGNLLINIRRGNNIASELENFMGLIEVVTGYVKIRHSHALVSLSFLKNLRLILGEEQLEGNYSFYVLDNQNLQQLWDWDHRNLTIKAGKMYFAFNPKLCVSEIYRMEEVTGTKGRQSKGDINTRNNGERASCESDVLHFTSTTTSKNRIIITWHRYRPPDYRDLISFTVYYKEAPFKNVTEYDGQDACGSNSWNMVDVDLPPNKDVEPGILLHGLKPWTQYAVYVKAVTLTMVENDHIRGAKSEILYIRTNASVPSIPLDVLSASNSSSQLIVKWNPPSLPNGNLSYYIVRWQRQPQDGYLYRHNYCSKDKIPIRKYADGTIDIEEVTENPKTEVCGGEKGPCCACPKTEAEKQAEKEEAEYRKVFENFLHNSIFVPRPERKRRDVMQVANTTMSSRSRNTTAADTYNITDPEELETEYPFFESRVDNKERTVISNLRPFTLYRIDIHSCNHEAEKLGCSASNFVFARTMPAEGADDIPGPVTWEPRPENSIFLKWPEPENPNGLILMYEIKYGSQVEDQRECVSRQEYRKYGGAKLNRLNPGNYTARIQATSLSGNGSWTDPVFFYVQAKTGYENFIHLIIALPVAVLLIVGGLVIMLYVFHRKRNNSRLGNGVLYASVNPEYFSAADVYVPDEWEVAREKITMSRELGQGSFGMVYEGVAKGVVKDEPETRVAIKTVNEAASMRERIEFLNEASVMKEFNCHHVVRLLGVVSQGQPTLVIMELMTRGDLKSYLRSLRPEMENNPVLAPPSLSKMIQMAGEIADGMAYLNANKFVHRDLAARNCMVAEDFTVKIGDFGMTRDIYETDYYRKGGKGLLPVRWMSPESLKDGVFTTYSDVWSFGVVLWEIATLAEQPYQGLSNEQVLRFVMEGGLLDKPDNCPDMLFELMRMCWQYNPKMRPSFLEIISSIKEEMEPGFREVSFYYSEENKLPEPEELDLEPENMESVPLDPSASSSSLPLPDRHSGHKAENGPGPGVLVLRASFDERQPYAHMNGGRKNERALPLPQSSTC

B1: scFv of AK18 (IGF-1R-binding region) (scFv, V domains shown)
VH: QVELVESGGGVVQPGRSQRLSCAASGFTFSSYGMHWVRQAPGKGLEWVAIIWFDGSSTYYADSVRGRFTISRDNSKNTLYLQMNSLRAEDTAVYFCARELGRRYFDLWGRGTLVSVSS
VL: EIVLTQSPATLSLSPGERATLSCRASQSVSSYLAWYQQKPGQAPRLLIYDASKRATGIPARFSGSGSGTDFTLTISSLEPEDFAVYYCQQRSKWPPWTFGQGTKVESK
**Q.** Does B1 bind?
**A.** binds

B2: scFv of F13B5 (IGF-1R-binding region) (scFv, V domains shown)
VH: B1 VH
VL: B1 VL with D50Q, W94Y
**Q.** Does B2 bind?
**A.** binds
